Reference: patent EP4624492A1
Numbering of substitutions follows the chain as printed. Read-outs that look alike come from different tables or passages of the source.

What was measured:
human CCR8 (human) [1] = target: human CCR8 (human) (UniProt P51685); experiment: cell-based or functional assay
human CCR8 (human) [2] = target: human CCR8 (human) (UniProt P51685); experiment: flow cytometry on 293F-hCCR8 cells
human CCR8 (human) [3] = target: human CCR8 (human) (UniProt P51685); experiment: flow cytometry on 293F-hCCR8 cells; remark: listed apart in the source
human CCR8 (human) [4] = target: human CCR8 (human) (UniProt P51685); experiment: flow cytometry on 293F-hCCR8 cells; remark: listed apart in the source
human CCR8 (human) [5] = target: human CCR8 (human) (UniProt P51685); experiment: flow cytometry on CHOK1-hCCR8 cells
[6] = target: cynomolgus CCR8 (cynomolgus monkey); experiment: flow cytometry on 293T-cynoCCR8 cells
[7] = target: cynomolgus CCR8 (cynomolgus monkey); experiment: flow cytometry on 293T-cynoCCR8 cells; remark: listed apart in the source
human CCR8 (human) [8] = target: human CCR8 (human) (UniProt P51685); experiment: flow cytometry on HuT78 cells (endogenous CCR8)
human CCR8 (human) [9] = target: human CCR8 (human) (UniProt P51685); experiment: flow cytometry, competition with 10 nM AF647-human CCL1 on 293F-hCCR8 cells
human CCR8 (human) [10] = target: human CCR8 (human) (UniProt P51685); experiment: as above; remark: listed apart in the source
human CCR8 (human) [11] = target: human CCR8 (human) (UniProt P51685); experiment: as above; remark: listed apart in the source

human CCR8 (human), sequence (P51685 whole entry): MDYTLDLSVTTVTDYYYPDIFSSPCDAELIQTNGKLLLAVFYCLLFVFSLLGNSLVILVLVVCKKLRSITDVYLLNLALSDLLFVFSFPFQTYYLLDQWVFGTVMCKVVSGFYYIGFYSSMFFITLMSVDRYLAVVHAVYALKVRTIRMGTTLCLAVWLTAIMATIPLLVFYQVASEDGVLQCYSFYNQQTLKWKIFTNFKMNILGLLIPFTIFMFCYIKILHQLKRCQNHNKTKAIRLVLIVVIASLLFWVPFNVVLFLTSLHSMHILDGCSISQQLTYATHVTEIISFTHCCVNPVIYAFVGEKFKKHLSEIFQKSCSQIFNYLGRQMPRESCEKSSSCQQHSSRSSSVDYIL

B1: 559E1B10_hzH0L0_hIgG1 (antibody, V domains shown)
VH: QVQLVQSGAEVKKPGASVKVSCKASGYTFTDYYVNWVRQAPGQGLEWMGVINPHNGDTRYNQKFKGRVTMTRDTSTSTVYMELSSLRSEDTAVYYCASWLRRGYYFDSWGQGTTVTVSS
VL: EIVLTQSPATLSLSPGERATLSCRASQSISDYLHWYQQKPGQAPRLLIYYVSQSISGIPARFSGSGSGTDFTLTISSLEPEDFAVYYCQNGHSFPLTFGGGTKVEIKR
B1 showed an EC50 of activation of Jurkat-human FcγRIIIa(158V)-NFAT with 293F-hCCR8 target cells (human CCR8 (human) [1]) of 0.855 µg/mL.

B2: 559E1B10_hzH2L0_hIgG1 (antibody, V domains shown)
VH: B1 VH with M48I, V68A, M70L, R72V, T74K
VL: B1 VL
In the case of B2, the EC50 of activation of Jurkat-human FcγRIIIa(158V)-NFAT with 293F-hCCR8 target cells (human CCR8 (human) [1]) is reported as 0.706 µg/mL.

B3: 559E1B10_hzH1L0_hIgG1 (antibody, V domains shown)
VH: B1 VH with R72V, T74K
VL: B1 VL
B3 was tested, and the EC50 of activation of Jurkat-human FcγRIIIa(158V)-NFAT with 293F-hCCR8 target cells (human CCR8 (human) [1]) was 1.69 µg/mL.

B4: anti-human CCR8 433H (antibody, from another filing, V domains shown)
VH: EVQLVETGGGLVQPKGSLRLSCAASGFPFNTFAMNWVRQAPGKGLEWLARIRSKSNNYATYYADSVKDRFTISRDDSRRMLYLLMNNVKFEDTAIYYCVRGKENNYGYAMDYWGQGTSVTVSS
VL: DIVMTQAAPSVPVTPGESVSISCRSSQSLLHSNGNTYLYWFLQRPGQSPQLLIYRMSNLASGVPDRFSGSGSGTAFTLRISRVEAEDVGVYYCMQHLEYPFTFGIGTKLELKR
Work on B4 yielded an IC50 of blockade of CCL1-induced β-arrestin recruitment (human CCR8 (human) [1]) of 2.36 µg/mL, an IC50 of blockade of CCL1-induced β-arrestin recruitment (Tango-H CCR8-CHO-K1 cells) (human CCR8 (human) [1]) of 1.29 µg/mL and an EC50 (human CCR8 (human) [2]) of 0.206 µg/mL. The EC50 (human CCR8 (human) [3]) was 0.153 µg/mL, the EC50 (human CCR8 (human) [4]) was 0.156 µg/mL and the EC50 (human CCR8 (human) [5]) was 0.0788 µg/mL. It also gave an EC50 [6] of 15.3 µg/mL, an EC50 [7] of 14.6 µg/mL and an EC50 (human CCR8 (human) [8]) of 0.0763 µg/mL. The IC50 (human CCR8 (human) [9]) was 0.0943 µg/mL, the IC50 (human CCR8 (human) [10]) was 0.0705 µg/mL and the IC50 (human CCR8 (human) [11]) was 0.0965 µg/mL.

B5: B16_hIgG1 (antibody, from another filing, V domains shown)
VH: EVQLVESGGGLVQPGGSLKLSCAASGFTFNTYAMNWVRQASGKGLEWVGRIRSKSNNYATYYADSVKDRFTISRDDSKNTAYLQMNSLKTEDTAVYYCVRGLLRYRFFDVWGQGTTVTVSS
VL: DIVMTQSPLSLPVTPGEPASISCRSSKSLLHSNGNTYLYWFLQKPGQSPQLLIYRMSNLASGVPDRFSGSGSGTDFTLKISRVEAEDVGVYYCMQHLEYPFTFGGGTKVEIKR
B5 showed an EC50 of ADCC effect (lysis%) by human PBMCs on CHOK1-hCCR8 cells (human CCR8 (human) [1]) of 0.00238 µg/mL, an EC50 of activation of Jurkat-human FcγRIIIa(158V)-NFAT with 293F-hCCR8 target cells (human CCR8 (human) [1]) of 0.0131 µg/mL and an EC50 of activation of Jurkat-human FcγRIIIa(158V)-NFAT with CHOK1-hCCR8 target cells (human CCR8 (human) [1]) of 0.0265 µg/mL. The EC50 (human CCR8 (human) [5]) was 0.0356 µg/mL and the EC50 (human CCR8 (human) [8]) was 0.0364 µg/mL.

B6: 4A19_hIgG1 (antibody, from another filing, V domains shown)
VH: QVQLVQSGAEVKKPGASVKVSCKASGYTFTDSEMHWVRQATGQGLEWMGAIQPETGGTAYNQKFKARVTMTRDTSISTAYMELSSLRSEDTAVYYCARRRRNFDYWGQGTLVTVSS
VL: DIVMTQTPLSLSVTPGQPASISCRSSQSLFHSSGNTYLHWYLQKPGQPPQLLIYKVSNRFSGVPDRFSGSGSGTDFTLKISRVEAEDVGVYYCSQSTHVPFTFGQGTKLEIKR
With B6 the EC50 of activation of Jurkat-human FcγRIIIa(158V)-NFAT with CHOK1-hCCR8 target cells (human CCR8 (human) [1]) was 0.0141 µg/mL.
